For series [1], the system named is Control peptide #112: [5-Fam]TRIDEANQRATK[DABCYL]-Hex.
Series [2] has as its system Control peptide #113: [4-Mu]TRIDEANQRATK[DABCYL]-Hex.

Data on 1 substance can be found in patent US20210255174.

The term KM denotes the concentration of substrate that gives half-maximal velocity. In the case of Trypsin, the KM came out at 3.75 µM in series [1] and 13.3 µM in series [2].
